Columns and labels:
[1] = target: human fibroblast activation protein alpha (FAP) on the cell surface (human) (UniProt Q12884); experiment: competition flow cytometry, HT-1080FAP clone 33 cells, unlabelled competitor at 31.66 µg/ml against 1 µg/ml biotinylated cF19; signal of bound biotinylated cF19
[2] = target: human fibroblast activation protein alpha (FAP) on the cell surface (human) (UniProt Q12884); experiment: flow cytometry, HT-1080FAP clone 33 cells, antibody at 500.0 ng/ml, FITC anti-human IgG
[3] = target: human fibroblast activation protein alpha (FAP) on the cell surface (human) (UniProt Q12884); experiment: competition flow cytometry, HT-1080FAP clone 33 cells, unlabelled competitor at 10.00 µg/ml against 1 µg/ml biotinylated cF19; signal of bound biotinylated cF19
[4] = target: human fibroblast activation protein alpha (FAP) on the cell surface (human) (UniProt Q12884); experiment: flow cytometry, HT-1080FAP clone 33 cells, antibody at 4.0 ng/ml, FITC anti-human IgG
[5] = target: human fibroblast activation protein alpha (FAP) on the cell surface (human) (UniProt Q12884); experiment: flow cytometry, HT-1080FAP clone 33 cells, biotinylated antibody at 8.0 ng/ml, streptavidin-FITC
[6] = target: human fibroblast activation protein alpha (FAP) on the cell surface (human) (UniProt Q12884); experiment: flow cytometry, HT-1080FAP clone 33 cells, biotinylated antibody at 1.6 ng/ml, streptavidin-FITC
[7] = target: human fibroblast activation protein alpha (FAP) on the cell surface (human) (UniProt Q12884); experiment: flow cytometry, HT-1080FAP clone 33 cells, biotinylated antibody at 200.0 ng/ml, streptavidin-FITC
[8] = target: human fibroblast activation protein alpha (FAP) on the cell surface (human) (UniProt Q12884); experiment: flow cytometry, MF-SH cells with endogenous FAP, antibody at 4000 ng/ml
[9] = target: human fibroblast activation protein alpha (FAP) on the cell surface (human) (UniProt Q12884); experiment: flow cytometry, HT-1080FAP clone 33 cells, antibody at 0.8 ng/ml, FITC anti-human IgG
[10] = target: human fibroblast activation protein alpha (FAP) on the cell surface (human) (UniProt Q12884); experiment: competition flow cytometry, HT-1080FAP clone 33 cells, unlabelled competitor at 3.16 µg/ml against 1 µg/ml biotinylated cF19; signal of bound biotinylated cF19
[11] = target: human fibroblast activation protein alpha (FAP) on the cell surface (human) (UniProt Q12884); experiment: flow cytometry, HT-1080FAP clone 33 cells, biotinylated antibody at 1,000.0 ng/ml, streptavidin-FITC
[12] = target: human fibroblast activation protein alpha (FAP) on the cell surface (human) (UniProt Q12884); experiment: flow cytometry, HT-1080FAP clone 33 cells, biotinylated antibody at 5,000.0 ng/ml, streptavidin-FITC
[13] = target: human fibroblast activation protein alpha (FAP) on the cell surface (human) (UniProt Q12884); experiment: flow cytometry, HT-1080FAP clone 33 cells, antibody at 100.0 ng/ml, FITC anti-human IgG
[14] = target: human fibroblast activation protein alpha (FAP) on the cell surface (human) (UniProt Q12884); experiment: flow cytometry, HT-1080FAP clone 33 cells, antibody at 20.0 ng/ml, FITC anti-human IgG
[15] = target: human fibroblast activation protein alpha (FAP) on the cell surface (human) (UniProt Q12884); experiment: competition flow cytometry, HT-1080FAP clone 33 cells, unlabelled competitor at 1.00 µg/ml against 1 µg/ml biotinylated cF19; signal of bound biotinylated cF19
[16] = target: human fibroblast activation protein alpha (FAP) on the cell surface (human) (UniProt Q12884); experiment: flow cytometry, HT-1080FAP clone 33 cells, biotinylated antibody at 40.0 ng/ml, streptavidin-FITC
[17] = target: human fibroblast activation protein alpha (FAP) on the cell surface (human) (UniProt Q12884); experiment: flow cytometry, MF-SH cells with endogenous FAP, antibody at 2000 ng/ml
[18] = target: human fibroblast activation protein alpha (FAP) on the cell surface (human) (UniProt Q12884); experiment: flow cytometry, MF-SH cells with endogenous FAP, antibody at 1000 ng/ml
[19] = target: T1, recombinant membrane-bound human FAP solubilised in detergent extracts of transfected cells (293FAP 1/2, … (human, UniProt Q12884 1-760)); experiment: sandwich ELISA, cF19 as capture antibody
T1 construct: Same protein as m5, but isolated from the cells; also called recombinant human FAP
T1 sequence (looked up): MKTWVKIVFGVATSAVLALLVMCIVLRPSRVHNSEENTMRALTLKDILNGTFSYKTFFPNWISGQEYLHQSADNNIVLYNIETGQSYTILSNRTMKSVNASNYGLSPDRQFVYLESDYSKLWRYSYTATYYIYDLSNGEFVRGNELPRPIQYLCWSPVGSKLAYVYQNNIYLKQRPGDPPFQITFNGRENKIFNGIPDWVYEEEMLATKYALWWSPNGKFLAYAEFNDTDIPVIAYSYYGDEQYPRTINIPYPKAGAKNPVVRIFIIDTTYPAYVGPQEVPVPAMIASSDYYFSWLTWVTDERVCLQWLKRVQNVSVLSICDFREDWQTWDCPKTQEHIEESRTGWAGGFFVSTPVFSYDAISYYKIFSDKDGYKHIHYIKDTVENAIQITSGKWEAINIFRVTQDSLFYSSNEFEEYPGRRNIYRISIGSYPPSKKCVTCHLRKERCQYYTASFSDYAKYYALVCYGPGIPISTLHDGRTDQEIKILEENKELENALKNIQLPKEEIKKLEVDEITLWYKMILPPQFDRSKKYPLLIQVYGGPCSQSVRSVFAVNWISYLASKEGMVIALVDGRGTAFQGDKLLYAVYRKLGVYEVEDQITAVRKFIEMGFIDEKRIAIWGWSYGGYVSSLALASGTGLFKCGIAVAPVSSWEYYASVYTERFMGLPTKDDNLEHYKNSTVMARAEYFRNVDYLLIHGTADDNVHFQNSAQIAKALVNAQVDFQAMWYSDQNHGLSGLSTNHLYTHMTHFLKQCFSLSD

[20] = target: human fibroblast activation protein alpha (FAP) on the cell surface (human) (UniProt Q12884); experiment: flow cytometry, MF-SH cells with endogenous FAP, antibody at 500 ng/ml
[21] = target: human fibroblast activation protein alpha (FAP) on the cell surface (human) (UniProt Q12884); experiment: flow cytometry, HT-1080FAP clone 33 cells, 1 µg/ml biotinylated cF19 without competitor (0.00 µg/ml)
[22] = target: T1, recombinant membrane-bound human FAP …; experiment: sandwich ELISA, detergent extract of 293FAP 1/2 cells on cF19-coated plates, HRP-streptavidin

hIgG1 (human immunoglobulin, IgG1 subclass), negative control (antibody)
Mean fluorescence concentration [1]: 10.3 | Mean fluorescence intensity [2]: 0.12 | Mean fluorescence concentration [3]: 9.8 | Mean fluorescence intensity [4]: 0.12 | Mean fluorescence intensity [5]: 0.2 | Mean fluorescence intensity [6]: 0.3 | Mean fluorescence intensity [7]: 0.2 | Mean fluorescence intensity [8]: 0.6 | Mean fluorescence intensity [9]: 0.12 | Mean fluorescence concentration [10]: 11.3 | Mean fluorescence intensity [11]: 0.2 | Mean fluorescence intensity [12]: 0.2 | Mean fluorescence intensity [13]: 0.12 | Mean fluorescence intensity [14]: 0.12 | Mean fluorescence concentration [15]: 9 | Mean fluorescence intensity [16]: 0.2

B1: chimeric F19 antibody (cF19), mouse F19 variable regions joined to human kappa and gamma-1 constant regions (antibody, human IgG1, kappa, V domains shown)
VH: VQLQQSGPELVKPGASVKMSCKTSRYTFTEYTIHWVRQSHGKSLEWIGGINPNNGIPNYNQKFKGRATLTVGKSSSTAYMELRSLTSEDSAVYFCARRRIAYGYDEGHAMDYWGQGTSVTVSS
VL: DIVMSQSPSSLAVSVGEKVTMSCKSSQSLLYSRNQKNYLAWFQQKPGQSPKLLIFWASTRESGVPDRFTGSGFGTDFNLTISSVQAEDLAVYDCQQYFSYPLTFGAGTKLELKR
notes: Biotinylated in some assays; also called biotinylated cF19
Mean fluorescence concentration [1]: 1.2 | Mean fluorescence intensity [2]: 6.65 | Mean fluorescence concentration [3]: 1.3 | Mean fluorescence intensity [4]: 0.17 | Mean fluorescence intensity [5]: 0.5 | Mean fluorescence intensity [6]: 0.3 | Mean fluorescence intensity [7]: 4.5 | Mean fluorescence intensity [17]: 3.3 | Mean fluorescence intensity [8]: 3.6 | Mean fluorescence intensity [9]: 0.14 | Mean fluorescence concentration [10]: 4.8 | Mean fluorescence intensity [18]: 2.4 | binding result [19]: binds | Mean fluorescence intensity [11]: 18.1 | Mean fluorescence intensity [20]: 1.8 | Mean fluorescence intensity [12]: 36.5 | Mean fluorescence concentration [21]: 11.2 | Mean fluorescence intensity [13]: 1.63 | Mean fluorescence intensity [14]: 0.43 | Mean fluorescence concentration [15]: 7.5 | Mean fluorescence intensity [16]: 1.3

B2: LAHC (reshaped human anti-human FAP monoclonal antibody: F19 human reshaped light chain variable region version A with heavy chain variable region version C, … (antibody, V domains shown)
VH: QVQLVQSGAEVKKPGASVKVSCKTSRYTFTEYTIHWVRQAPGQRLEWIGGINPNNGIPNYNQKFKGRVTITVDTSASTAYMELSSLRSEDTAVYYCARRRIAYGYDEGHAMDYWGQGTLVTVSS
VL: DIVMTQSPDSLAVSLGERATINCKSSQSLLYSRNQKNYLAWYQQKPGQPPKLLIFWASTRESGVPDRFSGSGFGTDFTLTISSLQAEDVAVYYCQQYFSYPLTFGQGTKVEIKR
notes: The name joins light version A (LA) and heavy version C (HC); also called biotinylated LAHC; BIBH 1
binding result [22]: binds

Source: patent EP1098979B1 (Boehringer Ingelheim International GmbH, dated 2007)
